Source: US20140271469A1 (Stanford University, published 2014)
Positions count from the first letter of the chain named. Ends that are not written are not given here. * marks the point of attachment. DOTA = O=C(O)CN1CCN(CC(=O)O)CCN(CC(=O)*)CCN(CC(=O)O)CC1

T1: Recombinant human integrin αvβ6 (human), P06756
T1 chain 1: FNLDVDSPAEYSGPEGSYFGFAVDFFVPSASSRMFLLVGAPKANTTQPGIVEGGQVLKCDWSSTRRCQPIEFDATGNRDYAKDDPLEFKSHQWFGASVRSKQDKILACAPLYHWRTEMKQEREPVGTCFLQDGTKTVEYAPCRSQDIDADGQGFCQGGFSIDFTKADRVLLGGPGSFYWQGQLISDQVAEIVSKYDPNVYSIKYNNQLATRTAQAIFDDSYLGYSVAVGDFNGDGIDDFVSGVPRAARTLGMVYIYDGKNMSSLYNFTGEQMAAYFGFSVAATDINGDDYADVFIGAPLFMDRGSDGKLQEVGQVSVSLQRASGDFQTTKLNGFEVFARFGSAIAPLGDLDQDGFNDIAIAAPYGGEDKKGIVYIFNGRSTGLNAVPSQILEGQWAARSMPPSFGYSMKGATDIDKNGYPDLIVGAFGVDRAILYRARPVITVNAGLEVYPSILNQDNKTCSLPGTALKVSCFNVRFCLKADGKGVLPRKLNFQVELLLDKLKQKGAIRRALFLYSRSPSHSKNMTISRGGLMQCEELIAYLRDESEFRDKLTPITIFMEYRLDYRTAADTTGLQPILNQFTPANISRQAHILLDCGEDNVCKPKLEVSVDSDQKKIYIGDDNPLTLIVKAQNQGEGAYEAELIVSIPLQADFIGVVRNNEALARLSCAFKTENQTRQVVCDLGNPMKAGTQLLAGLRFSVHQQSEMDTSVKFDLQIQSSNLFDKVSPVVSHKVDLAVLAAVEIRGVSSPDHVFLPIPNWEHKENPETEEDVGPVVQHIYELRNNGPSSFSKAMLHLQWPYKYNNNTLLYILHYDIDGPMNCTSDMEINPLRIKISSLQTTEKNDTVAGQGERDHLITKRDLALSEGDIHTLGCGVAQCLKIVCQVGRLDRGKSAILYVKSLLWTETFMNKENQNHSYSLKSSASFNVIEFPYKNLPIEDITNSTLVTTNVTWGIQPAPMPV
T1 chain 2: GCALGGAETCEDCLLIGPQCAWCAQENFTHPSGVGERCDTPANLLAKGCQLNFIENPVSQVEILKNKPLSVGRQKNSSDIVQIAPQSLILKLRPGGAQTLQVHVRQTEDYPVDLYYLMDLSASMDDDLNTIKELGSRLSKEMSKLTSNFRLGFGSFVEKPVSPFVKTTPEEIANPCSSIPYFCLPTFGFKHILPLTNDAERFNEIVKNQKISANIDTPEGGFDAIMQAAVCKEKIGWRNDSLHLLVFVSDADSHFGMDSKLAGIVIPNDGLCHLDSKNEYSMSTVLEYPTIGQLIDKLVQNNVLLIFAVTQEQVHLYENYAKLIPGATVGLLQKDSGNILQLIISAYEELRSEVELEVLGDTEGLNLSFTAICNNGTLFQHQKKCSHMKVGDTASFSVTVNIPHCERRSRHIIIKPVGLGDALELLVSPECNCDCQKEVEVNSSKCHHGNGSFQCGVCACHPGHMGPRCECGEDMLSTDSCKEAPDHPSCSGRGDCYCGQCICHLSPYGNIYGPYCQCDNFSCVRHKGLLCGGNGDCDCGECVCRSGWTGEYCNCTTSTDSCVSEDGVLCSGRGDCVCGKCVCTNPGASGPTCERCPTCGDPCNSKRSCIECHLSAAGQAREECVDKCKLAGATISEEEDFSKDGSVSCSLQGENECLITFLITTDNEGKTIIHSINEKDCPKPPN

B1: R01 (peptide)
peptide: GCILNMRTDLGTLLFRCRRDSDCPGACICRGNGYCG
notes: also called wild-type R01; wt
B2: MΔW (peptide)
peptide: B1 peptide with M6W
notes: also called R01 tryptophan substitution
B3: R02 (peptide)
peptide: GCRSLARTDLDHLRGRCRRDSDCPGACICRGNGYCG
notes: also called activity '2' in the R0 scaffold
B4: R03 (peptide)
peptide: B3 peptide with S4L, L5V, A6F
notes: also called activity '3' in the R0 scaffold
B5: S02 (peptide)
peptide: GCRSLARTDLDHLRDRCSSDSDCLAECICLENGFCG
modifications: disulfide (positions not given here); not fully specified (bridges); also: three disulfide bonds, places not given here
notes: also called activity '2' in the S0 scaffold
B6: S03 (peptide)
peptide: B5 peptide with S4L, L5V, A6F, D15G
notes: It says only that activity '3' was tested in the S0 scaffold; The chain is composed here from the loop of R03 and the scaffold of S02, and the residue limits were counted by me; also called activity '3' in the S0 scaffold
B7: S01 (peptide)
peptide: GCILNMRTDLGTLLFRCSSDSDCLAECICLENGFCG
notes: It says only that activity '1' was tested in the S0 scaffold; also called activity '1' in the S0 scaffold
B8: E42 (peptide)
peptide: B3 peptide with R18E, R19E, R30E
notes: also called activity '2' in glutamic acid-rich scaffold E4
B9: E12 (peptide)
peptide: B3 peptide with R30E
notes: also called activity '2' in glutamic acid-rich scaffold E1
B10: R12 (peptide)
peptide: B3 peptide with S21R
notes: also called activity '2' in arginine-rich scaffold R1
B11: R22 (peptide)
peptide: B3 peptide with P24R
notes: also called activity '2' in arginine-rich scaffold R2
B12: R32 (peptide)
peptide: B3 peptide with S21R, P24R
notes: also called activity '2' in arginine-rich scaffold R3
B13: MΔR (peptide)
peptide: B1 peptide with M6R
modifications: not checked
B14: MΔG (peptide)
peptide: B1 peptide with M6G
modifications: not checked
B15: scR01 (peptide)
peptide: B1 peptide with T8D, D9T
notes: also called scrambled R01
B16: scS02 (peptide)
peptide: B5 peptide with T8D, D9T
notes: also called scrambled S02
B17: 64Cu-DOTA-R02 (peptide)
peptide: {DOTA}-GCRSLARTDLDHLRGRCRRDSDCPGACICRGNGYCG
modifications: cysteine pairing not given here; also: 64Cu complex of DOTA
notes: also called 64Cu-DOTA-labeled R02
B18: G2 (peptide)
peptide: GCGHPRTDLASLAKRCRRDSDCPGACICRGNGYCG
notes: also called graft 2
B19: G3 (peptide)
peptide: GCGGHPRTDLASLAKRCRRDSDCPGACICRGNGYCG
notes: also called graft 3

Each binder was assayed against T2, Recombinant human integrin αvβ6 (human, UniProt P06756 31-992; P18564 22-707) (assay: cell sorting study, peptide expressed on the surface of yeast).
T2 construct: Bought soluble heterodimer; also called alpha-v-beta-6; avb6

Binder	Kd [nM]
B1	1.07
B2	1.69

These binders were tested against Recombinant human integrin α5β1 (human, UniProt P08648 42-995; P05556 21-728) (assay: flow cytometry, peptide displayed on yeast, soluble integrin (FIG. 1C)).
Sequence of Recombinant human integrin α5β1 (P08648 42-995, chain 1 of 2): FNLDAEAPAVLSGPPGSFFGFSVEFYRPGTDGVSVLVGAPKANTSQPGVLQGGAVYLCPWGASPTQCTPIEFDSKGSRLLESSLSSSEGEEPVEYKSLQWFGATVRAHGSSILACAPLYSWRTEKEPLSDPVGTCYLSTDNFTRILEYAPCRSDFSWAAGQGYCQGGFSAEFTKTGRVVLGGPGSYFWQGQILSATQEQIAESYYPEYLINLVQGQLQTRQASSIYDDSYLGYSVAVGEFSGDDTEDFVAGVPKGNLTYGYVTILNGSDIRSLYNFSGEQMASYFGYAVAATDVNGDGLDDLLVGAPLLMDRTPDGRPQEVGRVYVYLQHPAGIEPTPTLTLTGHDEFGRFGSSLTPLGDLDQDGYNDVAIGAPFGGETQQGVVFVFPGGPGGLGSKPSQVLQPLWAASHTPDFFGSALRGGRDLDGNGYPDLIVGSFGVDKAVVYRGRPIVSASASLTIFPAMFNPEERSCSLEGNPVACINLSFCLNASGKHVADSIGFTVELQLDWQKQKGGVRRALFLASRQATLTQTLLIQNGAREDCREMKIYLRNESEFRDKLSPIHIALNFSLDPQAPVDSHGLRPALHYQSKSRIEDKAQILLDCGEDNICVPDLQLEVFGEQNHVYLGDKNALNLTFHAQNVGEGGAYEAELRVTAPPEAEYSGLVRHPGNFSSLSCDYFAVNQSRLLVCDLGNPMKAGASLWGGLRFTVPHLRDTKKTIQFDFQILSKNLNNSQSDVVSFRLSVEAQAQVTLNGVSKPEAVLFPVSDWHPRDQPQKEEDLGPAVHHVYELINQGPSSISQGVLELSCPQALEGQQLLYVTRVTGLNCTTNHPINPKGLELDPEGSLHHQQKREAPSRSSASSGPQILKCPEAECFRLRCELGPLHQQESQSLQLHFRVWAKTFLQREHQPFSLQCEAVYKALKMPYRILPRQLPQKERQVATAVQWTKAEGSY
Sequence of Recombinant human integrin α5β1 (P05556 21-728, chain 2 of 2): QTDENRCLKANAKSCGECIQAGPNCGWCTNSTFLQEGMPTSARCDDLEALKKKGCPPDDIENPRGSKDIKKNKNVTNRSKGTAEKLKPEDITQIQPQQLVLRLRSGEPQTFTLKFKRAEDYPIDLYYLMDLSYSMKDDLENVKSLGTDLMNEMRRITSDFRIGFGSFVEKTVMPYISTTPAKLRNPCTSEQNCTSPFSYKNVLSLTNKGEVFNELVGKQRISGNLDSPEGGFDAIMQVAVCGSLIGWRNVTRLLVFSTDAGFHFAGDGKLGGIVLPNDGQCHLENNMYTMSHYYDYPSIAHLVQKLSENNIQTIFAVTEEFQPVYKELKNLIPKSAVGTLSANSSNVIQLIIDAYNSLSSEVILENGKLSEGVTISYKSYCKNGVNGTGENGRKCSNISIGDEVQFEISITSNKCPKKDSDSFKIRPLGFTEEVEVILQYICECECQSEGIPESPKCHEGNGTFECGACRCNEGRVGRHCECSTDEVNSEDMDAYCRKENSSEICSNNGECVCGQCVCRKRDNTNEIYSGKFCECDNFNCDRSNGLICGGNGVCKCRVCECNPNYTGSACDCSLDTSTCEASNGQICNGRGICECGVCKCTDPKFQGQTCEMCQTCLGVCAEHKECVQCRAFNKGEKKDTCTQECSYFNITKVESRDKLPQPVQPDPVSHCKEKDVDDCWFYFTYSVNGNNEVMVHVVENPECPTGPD

Binder	binding result
B3	no binding
B4	no binding
B1	no binding
B5	no binding
B6	no binding
B7	no binding

These binders were tested against Recombinant human integrin αvβ5 (human, UniProt P06756 31-992; P18084 24-719) in the same assay as above.
Sequence of Recombinant human integrin αvβ5 (P18084 24-719, one chain of several): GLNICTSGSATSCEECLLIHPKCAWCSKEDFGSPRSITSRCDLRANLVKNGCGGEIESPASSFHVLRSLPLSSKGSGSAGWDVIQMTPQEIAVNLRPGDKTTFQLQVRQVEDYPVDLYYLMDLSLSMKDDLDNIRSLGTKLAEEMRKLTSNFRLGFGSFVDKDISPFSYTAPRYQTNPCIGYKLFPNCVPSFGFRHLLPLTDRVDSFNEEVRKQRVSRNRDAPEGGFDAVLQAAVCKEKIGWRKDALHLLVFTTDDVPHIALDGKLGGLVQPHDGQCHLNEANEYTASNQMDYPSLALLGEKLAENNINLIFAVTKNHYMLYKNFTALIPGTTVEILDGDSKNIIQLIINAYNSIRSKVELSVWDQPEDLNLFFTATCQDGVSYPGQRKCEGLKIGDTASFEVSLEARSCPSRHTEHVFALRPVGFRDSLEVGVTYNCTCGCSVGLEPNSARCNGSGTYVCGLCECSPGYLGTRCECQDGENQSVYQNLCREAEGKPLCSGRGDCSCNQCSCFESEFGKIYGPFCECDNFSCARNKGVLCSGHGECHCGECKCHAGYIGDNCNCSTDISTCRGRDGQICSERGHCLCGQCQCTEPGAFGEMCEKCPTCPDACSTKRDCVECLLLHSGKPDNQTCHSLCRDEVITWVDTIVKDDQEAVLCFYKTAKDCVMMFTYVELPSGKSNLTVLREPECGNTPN

Binder	binding result
B3	no binding
B4	no binding
B5	no binding
B6	no binding
B7	no binding

The binders below were run against Recombinant human integrin αvβ3 (human, UniProt P06756 31-992; P05106 27-718) in the same assay as above.
Sequence of Recombinant human integrin αvβ3 (P05106 27-718, one chain of several): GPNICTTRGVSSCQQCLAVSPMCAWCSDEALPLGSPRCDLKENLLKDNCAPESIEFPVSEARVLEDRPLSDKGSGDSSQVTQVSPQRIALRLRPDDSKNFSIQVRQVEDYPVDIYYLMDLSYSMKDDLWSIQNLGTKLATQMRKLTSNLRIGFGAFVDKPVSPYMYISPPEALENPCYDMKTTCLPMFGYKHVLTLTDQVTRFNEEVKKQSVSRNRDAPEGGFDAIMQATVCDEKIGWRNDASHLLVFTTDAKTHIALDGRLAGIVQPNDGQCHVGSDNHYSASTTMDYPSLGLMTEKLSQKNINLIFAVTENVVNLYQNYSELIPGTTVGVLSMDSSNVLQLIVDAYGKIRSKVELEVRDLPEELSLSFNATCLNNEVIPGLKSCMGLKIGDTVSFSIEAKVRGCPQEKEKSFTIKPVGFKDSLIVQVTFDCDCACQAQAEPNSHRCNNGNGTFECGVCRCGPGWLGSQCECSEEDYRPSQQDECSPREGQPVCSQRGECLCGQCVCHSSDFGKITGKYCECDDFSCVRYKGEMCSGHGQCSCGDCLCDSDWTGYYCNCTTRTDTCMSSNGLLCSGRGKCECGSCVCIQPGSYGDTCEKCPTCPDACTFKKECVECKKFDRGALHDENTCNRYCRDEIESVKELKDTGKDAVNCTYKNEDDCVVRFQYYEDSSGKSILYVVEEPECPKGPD

Binder	binding result
B3	no binding
B4	no binding
B5	no binding
B6	no binding
B7	no binding

What follows are binders tested against T2, Recombinant human integrin αvβ6 (assay: flow cytometry, 10 nM integrin αvβ6, relative to R02).

Binder	binding result
B8	binds
B9	binds
B10	binds
B11	binds
B12	binds

Biological target: T1, Recombinant human integrin αvβ6 …
Test: cell sorting study, peptide expressed on the surface of yeast

Binder	Kd [nM]
B13	0.95
B14	1.24

The binders below were run against T2, Recombinant human integrin αvβ6 (assay: binding of scrambled peptide to soluble integrin αvβ6, normalised to R02 at 1 nM (FIG. 3A)).

Binder	binding result
B15	no binding (tested: 100 nM and 300 nM integrin αvβ6)
B16	no binding (tested: 100 nM and 300 nM integrin αvβ6)

The binders below were run against T3, Native integrin αvβ6 on cells (BxPC-3, A431) (human, UniProt P06756 31-1048; P18564 22-788) (assay: cell uptake assay with radiolabeled peptide (FIG. 5)).
T3 construct: whole, on cells; The cells also carry other integrins; also called integrin αvβ6 expressing cells; target expressing cells

Binder	binding result
B17	binds

The binders below were run against T2, Recombinant human integrin αvβ6 (assay: flow cytometry, peptide displayed on yeast, soluble integrin αvβ6).

Binder	Kd [nM]
B3	3.2
B4	3.6
B1	3.6
B5	6
B6	3.1
B7	6.5

The binders below were run against T2, Recombinant human integrin αvβ6 (assay: flow cytometry of yeast-displayed grafts with integrin αvβ6 (data not shown)).

Binder	binding result
B18	binds
B19	binds
